Consider 13 sequences from the Immune Epitope Database (IEDB).

The target in one assay is HLA-A*31:01. The experiment in a line: IEDB peptide-MHC binding, purified MHC/competitive/fluorescence; filed as Kd, often an IC50 or EC50 that approximates it; ≥ and ≤ were set here for values at or beyond the usual limits of such assays.
Assay [1] concerns the target HLA-A*03:01. The experiment in a line: IEDB peptide-MHC binding, purified MHC/direct/fluorescence; filed as Kd, often an IC50 or EC50 that approximates it; ≥ and ≤ were set here for values at or beyond the usual limits of such assays.
The target of assay [2] is HLA-A*11:01. The assay is described as above.
For a further assay, the target named is HLA-A*32:01. The experiment in a line: IEDB peptide-MHC binding, purified MHC/competitive/radioactivity; filed as Kd, often an IC50 or EC50 that approximates it; ≥ and ≤ were set here for values at or beyond the usual limits of such assays. The conditions noted are these: source organism: Vaccinia virus WR.
The target of another assay is HLA-B*08:01. The description is as above. As to conditions: source organism: Vaccinia virus WR.
The next assay has as its target HLA-B*15:03. The description is as above. As to conditions: source organism: Vaccinia virus WR.
Assay [3] has as its target HLA-A*03:01. The experiment in a line: IEDB peptide-MHC binding, purified MHC/competitive/fluorescence; filed as Kd, often an IC50 or EC50 that approximates it; ≥ and ≤ were set here for values at or beyond the usual limits of such assays. As to conditions: source organism: Neembucu hantavirus.
Assay [4] deals with HLA-A*69:01. The description is as above. The conditions noted are these: source organism: Neembucu hantavirus.
The target of another assay is HLA-B*15:17. Described as above. As to conditions: source organism: Neembucu hantavirus.
The target in another assay is HLA-B*57:01. The description is as above. The conditions noted are these: source organism: Neembucu hantavirus.
The target of assay [5] is HLA-B*15:01. The assay is described as above. As to conditions: source organism: Neembucu hantavirus.
A further assay addresses HLA-B*46:01. The assay is described as above. The conditions noted are these: source organism: Neembucu hantavirus.
Another assay deals with HLA-B*27:03. The assay is described as above. The conditions noted are these: source organism: Neembucu hantavirus.
Another assay addresses HLA-B*51:01. Described as above. The conditions noted are these: source organism: Neembucu hantavirus.
In another assay the target is HLA-B*39:01. The description is as above. The conditions noted are these: source organism: Neembucu hantavirus.
The next assay deals with HLA-B*18:01. Described as above. The conditions noted are these: source organism: Neembucu hantavirus.
The target of a further assay is HLA-A*26:01. Described as above. As to conditions: source organism: Neembucu hantavirus.
Another assay concerns the target HLA-A*02:19. The experiment in a line: IEDB peptide-MHC binding, purified MHC/direct/fluorescence; filed as Kd, often an IC50 or EC50 that approximates it; ≥ and ≤ were set here for values at or beyond the usual limits of such assays.
In a further assay the target is HLA-A*02:12. The assay is described as above.
The target in assay [6] is HLA-B*15:01. The experiment in a line: IEDB peptide-MHC binding, purified MHC/competitive/radioactivity; filed as Kd, often an IC50 or EC50 that approximates it; ≥ and ≤ were set here for values at or beyond the usual limits of such assays. As to conditions: source organism: Vaccinia virus WR.
In a further assay the target is HLA-A*30:01. The assay is described as above. As to conditions: source organism: Vaccinia virus WR.
In a further assay the target is HLA-A*24:02. The experiment in a line: IEDB peptide-MHC binding, purified MHC/competitive/fluorescence; ≥ and ≤ were set here for values at or beyond the usual limits of such assays.
Assay [7] addresses HLA-A*02:01. The assay is described as above. The conditions noted are these: source organism: Zaire ebolavirus.
For assay [8], the target named is HLA-B*15:01. Described as above.
For assay [9], the target named is HLA-A*11:01. Described as above. As to conditions: source organism: Zaire ebolavirus.
The target of another assay is HLA-B*58:01. The experiment in a line: IEDB peptide-MHC binding, purified MHC/competitive/radioactivity; filed as Kd, often an IC50 or EC50 that approximates it; ≥ and ≤ were set here for values at or beyond the usual limits of such assays. The conditions noted are these: source organism: Dengue virus 4 Philippines/H241/1956.
Assay [10] concerns the target HLA-A*69:01. The experiment in a line: IEDB peptide-MHC binding, purified MHC/direct/fluorescence; filed as Kd, often an IC50 or EC50 that approximates it; ≥ and ≤ were set here for values at or beyond the usual limits of such assays. The conditions noted are these: source organism: Amur virus.
In assay [11] the target is HLA-A*02:01. The description is as above. As to conditions: source organism: Amur virus.
The target in the next assay is HLA-A*02:11. The description is as above. As to conditions: source organism: Sapporo rat virus.
Where [12] appears, read: source organism: Influenza A virus (A/swine/Korea/S190/2004(H9N2)).
Setting [13] is: source organism: Orthohantavirus negraense.
Setting [14] is: source organism: Escherichia coli O157:H7.
Where [15] appears, read: source organism: Zaire ebolavirus.
[16] abbreviates: source organism: Vaccinia virus Copenhagen.
The mark [17] stands for this setting: source organism: West Nile virus.
Setting [18] is: source organism: Sapporo rat virus.

What is called pKd is the negative decadic logarithm of the Kd, by convention in mol/L. A word on the pIC50: it is the IC50 on a negative log10 scale, so that one unit is a factor of ten. A high value points to a low IC50.

pIC50, pKd: −log10 of the molar value. Where only a bound is given, the exact number is not on record here.

TTHSWIPKR: the pKd with HLA-A*31:01 (source organism: Influenza A virus (A/Fort Monmouth/1/1947-mouse adapted(H1N1))) is 8.64; in the assay with HLA-A*03:01 [1] (setting [12]), 5.55; in the assay with HLA-A*11:01 [2] (setting [12]) it was 6.88.

In the case of SMNTIKQSF, the pKd with HLA-A*32:01 was 6.53; with HLA-B*08:01, 6.35; in the assay with HLA-B*15:03, 7.78.

Take ILYMLSWGK: the pKd with HLA-A*03:01 [3] was 6.81; with HLA-A*69:01 [4], ≤ 4.70; with HLA-B*15:17, ≤ 4.70; in the assay with HLA-B*57:01 it was ≤ 4.70; with HLA-B*15:01 [5], ≤ 4.70; with HLA-B*46:01, ≤ 4.70. The pKd in the assay with HLA-B*27:03, with HLA-B*51:01, in the assay with HLA-B*39:01, with HLA-B*18:01, with HLA-A*26:01 and with HLA-A*02:19 (setting [13]) was ≤ 4.70 throughout. The pKd with HLA-A*02:12 (setting [13]) was ≤ 4.70.

As for RFNVPGTWR, the pKd with HLA-A*31:01 (source organism: Escherichia coli K-12) is 8.89; in the assay with HLA-A*03:01 [1] (setting [14]), 5.72; in the assay with HLA-A*11:01 [2] (setting [14]) it was ≤ 4.70.

On to KLTSTETSF, for which, in the assay with HLA-B*15:03, the pKd was 7.60.

As for FKAMWKYPF, in the assay with HLA-B*15:03, the pKd was 9.96.

As for HVKSTLNNA, the pKd is ≤ 4.38 in the assay with HLA-A*32:01; 6.44 with HLA-B*15:01 [6]; 5.82 in the assay with HLA-B*08:01; 8.94 with HLA-A*30:01; 6.42 with HLA-B*15:03.

As to LSFASLFLP, the pIC50 was 4.95 with HLA-A*24:02 (setting [15]), 5.57 with HLA-A*02:01 [7], ≤ 4.01 in the assay with HLA-B*15:01 [8] (setting [15]) and ≤ 3.75 with HLA-A*11:01 [9].

Regarding QMTSTFIML, the pIC50 was 6.65 in the assay with HLA-A*24:02 (setting [16]) and 4.52 with HLA-B*15:01 [8] (setting [16]).

In the case of GLYKSAPRR, the pKd with HLA-A*31:01 (setting [17]) was 6.71; with HLA-A*11:01 [2] (setting [17]), ≤ 4.70.

Take IASLPTYLSS: the pKd in the assay with HLA-B*58:01 is ≤ 4.44.

In the case of SLTECPTFL, the pKd in the assay with HLA-A*69:01 [10] is ≤ 4.70; with HLA-A*02:01 [11], ≥ 9.00; with HLA-A*02:11 it was ≥ 9.00; with HLA-A*02:19 (setting [18]), 7.39; with HLA-A*02:12 (setting [18]), 8.30.

As to AVAKYFSPL, the pKd with HLA-A*32:01 was 6.55; with HLA-B*15:01 [6], 7.80; with HLA-B*08:01, 6.72; with HLA-A*30:01, 5.05; with HLA-B*15:03, 6.63.
